Experimental findings from PMC12557481 are described below.

The target in data set [1] is T1, p53_WT (human, UniProt P04637 1-393). Description: AUC.
The target of data set [2] is T1, p53_WT. Description: EMSA. On the technique in general: A gel shift assay detects complexes by their altered migration in electrophoresis.
In data set [3] the target is T1, p53_WT. Description: AUC. The source holds these as a separate data set.

T1 sequence (P04637 whole entry): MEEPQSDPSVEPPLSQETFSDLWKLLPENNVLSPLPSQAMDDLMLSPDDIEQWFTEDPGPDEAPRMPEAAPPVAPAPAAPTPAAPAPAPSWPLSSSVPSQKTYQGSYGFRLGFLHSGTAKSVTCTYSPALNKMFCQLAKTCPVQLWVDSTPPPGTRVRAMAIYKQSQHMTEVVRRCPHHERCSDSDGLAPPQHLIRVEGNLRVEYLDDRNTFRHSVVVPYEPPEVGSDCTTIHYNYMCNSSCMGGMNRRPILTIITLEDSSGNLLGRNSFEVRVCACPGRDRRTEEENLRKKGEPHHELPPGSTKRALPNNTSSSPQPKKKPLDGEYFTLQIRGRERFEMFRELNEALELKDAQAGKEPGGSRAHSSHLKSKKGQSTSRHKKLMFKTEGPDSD

B1: DNAp21 (AUC) (dsDNA)
DNA 1: CTCAACATGTTGGGACATGTTCCT
DNA 2: AGGAACATGTCCCAACATGTTGAG
With B1, in the data set with p53_WT [1], the binding result is reported as “binds”.

B2: DNAp21 (EMSA) (dsDNA)
DNA 1: GAACATGTCCCAACATGTTGGGCGTCGGCTGTCGGAGGAACATGTCCCAACATGTTG
DNA 2: CAACATGTTGGGACATGTTCCTCCGACAGCCGACGCCCAACATGTTGGGACATGTTC
Turning to B2, the binding result in the data set with p53_WT [2] was “binds”.

B3: DNAmdm2 (EMSA) (dsDNA)
DNA 1: GGTCAAGTTGGGACACGTCCGGCGTCGGCTGTCGGAGGAGCTAAGTCCTGACATGTCT
DNA 2: AGACATGTCAGGACTTAGCTCCTCCGACAGCCGACGCCGGACGTGTCCCAACTTGACC
Regarding B3, the binding result with p53_WT [2] was “binds”.

B4: DNAmdm2 (AUC) (dsDNA)
DNA 1: B3 DNA 1
DNA 2: B3 DNA 2
Turning to B4, the binding result in the data set with p53_WT [3] is “binds”.
